Measured values taken from article PMC5286426, “The Calcium-Dependent Switch Helix of L-Plastin Regulates Actin Bundling” (Scientific Reports, 2017).

Molecular target: T1, L-plastin EF construct (EF-hand headpiece domain, H5 region omitted) (human)
T1 construct: human L-plastin (LPL), EF construct: the two N-terminal EF-hand motifs (helices 1-4, residues 8-79) with the H5 region omitted; holds Cys42; 15N-labelled in the NMR experiment; immobilised by Cys42 in SPR; also called LPL-EF; EF domain of LPL; source: E. coli BL21 (DE3), purified (IMAC, His-tag cleaved with TEV protease); not shown: His-tag, N-terminal, cleaved
Test: SPR; EF construct immobilised by its sole cysteine (Cys42) on a CM5 chip by thiol coupling; peptides injected; BIAcore X100; 10 mM Tris-HCl pH 7.5, 150 mM KCl, 1 mM CaCl2, 0.005% Tween-20; 30 uL/min, contact 1 min, 25 °C
Conditions: both partners purified

B1: CaMKI peptide (CaM-binding peptide) (peptide)
chain: AKSKWKQAFNATAVVRHMRKLQ
modifications: Limits are not given; 299-320 is the conventional 22-residue CaMKI calmodulin-binding peptide. Terminal modifications are not stated.
**Q.** Which Kd does the source give for B1 here?
**A.** The Kd was 3.27 µM.
